Test results from patent EP1173480B1 (Neurochem (International) Limited, dated 2008).
Non-standard residues stand in square brackets, D forms with d. No end group written: not given here.

Biological target: Aβ(1-40), naturally occurring all-[L] isomer (UniProt P05067 672-711)
Assay: cell-based or functional assay

Sequence of Aβ(1-40), naturally occurring all-[L] isomer (P05067 672-711 limits assumed): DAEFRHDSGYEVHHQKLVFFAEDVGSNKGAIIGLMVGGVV

Binder | order of potency as inhibitor of Aβ(1-40) fibril formation, thioflavin T fluorescence, peptide tested at 20µM (1 = strongest) | order of potency as inhibitor of Aβ(1-40) fibril formation, thioflavin T fluorescence, peptide tested at 80µM (1 = strongest)
[dK][dL][dV][dF] [all-[D] Lys-Leu-Val-Phe] | 6 rank | 9 rank
[dK][dA][dV][dF][dF][dA] [all-[D] Lys-Ala-Val-Phe-Phe-Ala] | 7 rank | 6 rank
AFFVLK (not fully specified) [all-[L] Ala-Phe-Phe-Val-Leu-Lys] | 11 rank | 11 rank
[dK][dI][dV][dF][dF][dA] [all-[D] Lys-Ile-Val-Phe-Phe-Ala] | 1 rank | 5 rank
[dK][dL][dV][dF][dF] [all-[D] Lys-Leu-Val-Phe-Phe] | 9 rank | 10 rank

Further lines, results first:

order of potency as inhibitor of Aβ(1-40) fibril formation, thioflavin T fluorescence, peptide tested at 20µM (1 = strongest) | order of potency as inhibitor of Aβ(1-40) fibril formation, thioflavin T fluorescence, peptide tested at 80µM (1 = strongest) | Binder
8 rank | 8 rank | KLVFFA [all-[L] Lys-Leu-Val-Phe-Phe-Ala]
5 rank | 1 rank | [dA][dF][dF][dV][dL][dK] [all-[D] Ala-Phe-Phe-Val-Leu-Lys (retro-isomer)]
4 rank | 1 rank | [dK][dF][dV][dF][dF][dA] [all-[D] Lys-Phe-Val-Phe-Phe-Ala]
3 rank | 1 rank | [dK][dL][dV][dF][dF][dA] [all-[D] Lys-Leu-Val-Phe-Phe-Ala]
2 rank | 1 rank | [dK][dK][dL][dV][dF][dF][dA] [all-[D] Lys-Lys-Leu-Val-Phe-Phe-Ala]
10 rank | 7 rank | KKLVFFA [all-[L] Lys-Lys-Leu-Val-Phe-Phe-Ala]
